Assay results taken from patent US9266964.
Where a chain is given by its changes, count along the chain named. Values belong to the binder of their own block, whether it stands above or below them.

Molecular target: human plasma kallikrein (human, UniProt P03952 20-390; P03952 391-638)
Test: cell-based or functional assay

Sequence of human plasma kallikrein (P03952 20-390, chain 1 of 2): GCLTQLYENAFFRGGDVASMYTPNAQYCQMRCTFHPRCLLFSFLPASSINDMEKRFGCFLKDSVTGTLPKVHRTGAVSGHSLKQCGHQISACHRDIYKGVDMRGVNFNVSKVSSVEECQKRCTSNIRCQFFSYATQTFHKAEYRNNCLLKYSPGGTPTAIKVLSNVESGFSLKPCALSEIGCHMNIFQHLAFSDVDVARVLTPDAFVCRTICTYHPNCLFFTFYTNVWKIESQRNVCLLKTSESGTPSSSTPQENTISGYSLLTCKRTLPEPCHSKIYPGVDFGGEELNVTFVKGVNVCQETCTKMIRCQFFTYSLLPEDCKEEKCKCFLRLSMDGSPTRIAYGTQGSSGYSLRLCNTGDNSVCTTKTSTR
Sequence of human plasma kallikrein (P03952 391-638, chain 2 of 2): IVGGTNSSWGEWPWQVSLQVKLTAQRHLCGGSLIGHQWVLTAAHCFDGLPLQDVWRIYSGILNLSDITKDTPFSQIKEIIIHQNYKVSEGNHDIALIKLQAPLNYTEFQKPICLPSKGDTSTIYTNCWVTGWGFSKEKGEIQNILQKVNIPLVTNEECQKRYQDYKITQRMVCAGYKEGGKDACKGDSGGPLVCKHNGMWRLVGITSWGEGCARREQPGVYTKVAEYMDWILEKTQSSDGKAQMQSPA

% inhibition at 10 nM: 86.1%
B1: M198-A07 (Fab, V domains shown)
VH: EVQLLESGGGLVQPGGSLRLSCAASGFTFSRYQMHWVRQAPGKGLEWVSWISPSGGITGYADSVKGRFTISRDNSKNTLYLQMNSLRAEDTAVYYCAYRRTGIPRRDAFDIWGQGTMVTVSS
VL: DIQMTQSPSTLSASVGDRVTITCRASQSISSWLAWYQQKPGKAPNLLIYKASTLESGVPSRFSGSGSGTEFTLTISSLQPDDFATYYCQQYNTYWTFGQGTKVEIK

% inhibition at 10 nM: 42.6%
B7: M200-B01 (Fab, V domains shown)
VH: B1 VH with R31H, Q33I, H35M, W50G, S52Y, P53S, G59V, I111S
VL: B1 VL

% inhibition at 10 nM: 85.8%
B11: M198-H02 (Fab, V domains shown)
VH: EVQLLESGGGLVQPGGSLRLSCAASGFTFSPYNMYWVRQAPGKGLEWVSWIVPGGVTKYADSVKGRFTISRDNSKNTLYLQMNSLRAEDTAVYYCAYRRTGIPRRDAFDIWGQGTMVTVSS
VL: B1 VL

% inhibition at 10 nM: 75.4%
B12: M198-C09 (Fab, V domains shown)
VH: B1 VH with R31I, Q33T, H35Y, W50S, I57W, G59Y
VL: B1 VL

% inhibition at 10 nM: 81.9%
B13: M202-B04 (Fab, V domains shown)
VH: B1 VH with R31H, Q33I, H35M, W50G, S52Y, P53S, G59V, T101S, I103V, A108D
VL: B1 VL

% inhibition at 10 nM: 74.3%
B14: M202-C02 (Fab, V domains shown)
VH: B1 VH with R31H, Q33I, H35M, W50G, S52Y, P53S, G59V, T101P, I103V
VL: B1 VL

% inhibition at 10 nM: 84.2%
B15: M195-C12 (Fab, V domains shown)
VH: B11 VH with P31M, N33Q, Y35F, W50S, V52S, V56G, K58Q
VL: B1 VL

% inhibition at 10 nM: 45.5%
B18: M195-F12 (Fab, V domains shown)
VH: B1 VH with R31H, Q33V, H35M, W50Y, S52V, I57V, G59A
VL: B1 VL

% inhibition at 10 nM: 83.9%
B19: M196-H03 (Fab, V domains shown)
VH: B11 VH with P31R, N33V, Y35W, W50S, V52S, G54S, V56D, K58H
VL: B1 VL

% inhibition at 10 nM: 72.4%
B24: M198-C03 (Fab, V domains shown)
VH: B1 VH with Q33S, H35S, W50G, I57E, G59S
VL: B1 VL

% inhibition at 10 nM: 51.7%
B28: M195-A12 (Fab, V domains shown)
VH: B1 VH with R31P, Q33M, H35M, W50G, S52Y, I57Y, G59V
VL: B1 VL

% inhibition at 10 nM: 75.1%
B29: M195-B02 (Fab, V domains shown)
VH: B1 VH with R31P, Q33L, H35W, W50Y, S52G, I57P, G59H
VL: B1 VL

% inhibition at 10 nM: 81.2%
B30: M202-A04 (Fab, V domains shown)
VH: B1 VH with R31H, Q33I, H35M, W50G, S52Y, P53S, G59V, T101K, A108D
VL: B1 VL

% inhibition at 10 nM: 67.6%
B31: M197-G10 (Fab, V domains shown)
VH: B1 VH with R31V, Q33A, H35R, W50S, S52Y, I57K, G59W
VL: B1 VL

% inhibition at 10 nM: 77.3%
B35: M198-A09 (Fab, V domains shown)
VH: B1 VH with R31I, Q33F, H35S, W50S, S52R, P53S, I57P, G59W
VL: B1 VL

% inhibition at 10 nM: 74.6%
B37: M198-F12 (Fab, V domains shown)
VH: B1 VH with R31I, Q33T, H35M, W50S, S52W, P53S, I57Q, G59K
VL: B1 VL

% inhibition at 10 nM: 53.4%
B38: M199-B01 (Fab, V domains shown)
VH: B1 VH with R31H, Q33I, H35M, W50G, S52Y, P53S, G59V, Y98F, I111N
VL: B1 VL

% inhibition at 10 nM: 84.6%
B39: M201-H06 (Fab, V domains shown)
VH: B1 VH with R31H, Q33I, H35M, W50G, S52Y, P53S, G59V, I103V
VL: B1 VL

The remaining lines, values behind:

B2: M195-G02 (Fab, V domains shown)
VH: B1 VH with R31P, Q33N, H35M, W50S, S52W, I57T, G59D
VL: B1 VL
% inhibition at 10 nM: 67.5%

B3: M202-F06 (Fab, V domains shown)
VH: B1 VH with R31H, Q33I, H35M, W50G, S52Y, P53S, G59V, I103V, R106W
VL: B1 VL
% inhibition at 10 nM: 84.2%

B4: M198-G03 (Fab, V domains shown)
VH: EVQLLESGGGLVQPGGSLRLSCAASGFTFSQYTMVWVRQAPGKGLEWVSWIYSSRANYADSVKGRFTISRDNSKNTLYLQMNSLRAEDTAVYYCAYRRTGIPRRDAFDIWGQGTMVTVSS
VL: B1 VL
% inhibition at 10 nM: 53.8%

B5: M196-D02 (Fab, V domains shown)
VH: B1 VH with R31V, Q33S, W50V, S52G, G59L
VL: B1 VL
% inhibition at 10 nM: 66.2%

B6: M198-C05 (Fab, V domains shown)
VH: B1 VH with Q33K, H35Y, W50V, S52G, I57A, G59F
VL: B1 VL
% inhibition at 10 nM: 83.9%

B8: M202-H05 (Fab, V domains shown)
VH: B1 VH with R31H, Q33I, H35M, W50G, S52Y, P53S, G59V, Y98F, I103V, A108V
VL: B1 VL
% inhibition at 10 nM: 84%

B9: M198-A08 (Fab, V domains shown)
VH: B11 VH with P31W, N33M, Y35Q, W50R, V52S, G54S, V56G, K58T
VL: B1 VL
% inhibition at 10 nM: 72.3%

B10: M196-G12 (Fab, V domains shown)
VH: B1 VH with R31N, Q33S, H35D, W50R, S52Y, P53S, I57G, G59I
VL: B1 VL
% inhibition at 10 nM: 51.1%

B16: M200-F01 (Fab, V domains shown)
VH: B1 VH with R31H, Q33I, H35M, W50G, S52Y, P53S, G59V, T101M, D107N
VL: B1 VL
% inhibition at 10 nM: 65.1%

B17: M197-C12 (Fab, V domains shown)
VH: B1 VH with R31P, Q33D, H35L, W50Y, S52V, P53S, I57L, G59K
VL: B1 VL
% inhibition at 10 nM: 56.4%

B20: M195-E12 (Fab, V domains shown)
VH: B1 VH with R31Y, Q33I, H35F, W50Y, I57Y, G59H
VL: B1 VL
% inhibition at 10 nM: 38%

B21: M198-C06 (Fab, V domains shown)
VH: B1 VH with R31Q, Q33F, W50Y, S52Y, I57M, G59E
VL: B1 VL
% inhibition at 10 nM: 76.5%

B22: M202-A08 (Fab, V domains shown)
VH: B1 VH with R31H, Q33I, H35M, W50G, S52Y, P53S, G59V, R106W
VL: B1 VL
% inhibition at 10 nM: 52.9%

B23: M195-A02 (Fab, V domains shown)
VH: B1 VH with R31Q, Q33M, H35M, W50G, P53S, I57H, G59D
VL: B1 VL
% inhibition at 10 nM: 71.3%

B25: M200-E11 (Fab, V domains shown)
VH: B1 VH with R31H, Q33I, H35M, W50G, S52Y, P53S, G59V, I103V, I111N
VL: B1 VL
% inhibition at 10 nM: 83.2%

B26: M199-A11 (Fab, V domains shown)
VH: B1 VH with R31H, Q33I, H35M, W50G, S52Y, P53S, G59V, T101R
VL: B1 VL
% inhibition at 10 nM: 65.4%

B27: M202-E03 (Fab, V domains shown)
VH: B1 VH with R31H, Q33I, H35M, W50G, S52Y, P53S, G59V, D110E
VL: B1 VL
% inhibition at 10 nM: 51.4%

B32: M200-H07 (Fab, V domains shown)
VH: B1 VH with R31H, Q33I, H35M, W50G, S52Y, P53S, G59V, I103V, D107N, I111N
VL: B1 VL
% inhibition at 10 nM: 85.4%

B33: M201-H08 (Fab, V domains shown)
VH: B1 VH with R31H, Q33I, H35M, W50G, S52Y, P53S, G59V, I103V, F109L, I111N
VL: B1 VL
% inhibition at 10 nM: 74.5%

B34: M198-B12 (Fab, V domains shown)
VH: B1 VH with R31K, Q33S, H35A, W50G, S52Y, I57R, G59L
VL: B1 VL
% inhibition at 10 nM: 80.7%

B36: M201-A06 (Fab, V domains shown)
VH: B1 VH with R31H, Q33I, H35M, W50G, S52Y, P53S, G59V, A108V
VL: B1 VL
% inhibition at 10 nM: 36.8%

B40: M198-H09 (Fab, V domains shown)
VH: B1 VH with R31I, Q33L, H35I, W50Y, S52G, I57P, G59E
VL: B1 VL
% inhibition at 10 nM: 41.1%
